Drawing on article doi:10.1101/2025.04.19.649678, this text covers stoichiometry N for 1 substance.

Read-outs that look alike come from different tables or passages of the source.

Test [1] addresses GPR3-BRIL fusion protein (UniProt P46089). Put plainly: cryo-EM structure.
Test [2] shares this target. Put plainly: cryo-EM structure. The source holds these as a separate data set.

As for “GPR3-BRIL fusion protein (from UniProt P46089 1-222; P46089 240-330) (receptor)”, the stoichiometry N with GPR3-BRIL fusion protein [1] and with GPR3-BRIL fusion protein [2] was 2 throughout.
